Target: DDB1 with N terminal Twin-Strep-FLAG (TSF) tag (human, UniProt Q16531 1-1140)
Test: cryo-EM structure

Chain of DDB1 with N terminal Twin-Strep-FLAG (TSF) tag (Q16531 whole entry): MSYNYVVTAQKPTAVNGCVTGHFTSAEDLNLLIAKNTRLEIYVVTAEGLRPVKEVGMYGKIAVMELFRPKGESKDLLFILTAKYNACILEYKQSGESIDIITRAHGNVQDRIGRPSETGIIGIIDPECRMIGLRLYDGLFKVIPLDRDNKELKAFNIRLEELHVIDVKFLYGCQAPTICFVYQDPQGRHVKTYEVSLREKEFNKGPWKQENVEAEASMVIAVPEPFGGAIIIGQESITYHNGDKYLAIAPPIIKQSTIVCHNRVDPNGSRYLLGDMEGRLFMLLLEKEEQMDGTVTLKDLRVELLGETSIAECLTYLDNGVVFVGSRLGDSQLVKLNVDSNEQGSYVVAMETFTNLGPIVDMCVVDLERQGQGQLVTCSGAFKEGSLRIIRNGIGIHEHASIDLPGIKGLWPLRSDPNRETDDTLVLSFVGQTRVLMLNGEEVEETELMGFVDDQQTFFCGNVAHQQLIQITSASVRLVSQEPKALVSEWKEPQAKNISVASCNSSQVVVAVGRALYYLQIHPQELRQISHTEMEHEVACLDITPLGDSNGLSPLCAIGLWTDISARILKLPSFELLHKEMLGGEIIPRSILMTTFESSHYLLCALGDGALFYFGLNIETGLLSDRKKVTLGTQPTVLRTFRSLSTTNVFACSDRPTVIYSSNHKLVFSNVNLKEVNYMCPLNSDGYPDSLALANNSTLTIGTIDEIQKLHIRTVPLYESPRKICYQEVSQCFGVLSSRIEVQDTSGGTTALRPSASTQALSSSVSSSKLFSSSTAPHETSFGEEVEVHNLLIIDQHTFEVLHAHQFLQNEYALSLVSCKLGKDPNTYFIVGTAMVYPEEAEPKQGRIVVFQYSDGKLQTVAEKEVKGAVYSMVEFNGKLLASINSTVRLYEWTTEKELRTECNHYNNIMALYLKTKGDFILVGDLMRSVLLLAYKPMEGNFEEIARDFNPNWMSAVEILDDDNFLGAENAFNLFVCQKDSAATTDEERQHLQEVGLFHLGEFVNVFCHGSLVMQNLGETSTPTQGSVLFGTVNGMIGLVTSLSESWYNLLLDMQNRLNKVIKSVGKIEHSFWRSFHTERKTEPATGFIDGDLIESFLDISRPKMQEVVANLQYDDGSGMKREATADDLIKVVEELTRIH

binding result: binds
B1: AMBRA1^WD40 (residues 1-204 directly fused to residues 853-1044) (domain or fragment)
chain: MKVVPEKNAVRILWGRERGARAMGAQRLLQELVEDKTRWMKWEGKRVELPDSPRSTFLLAFSPDRTLLASTHVNHNIYITEVKTGKCVHSLIGHRRTPWCVTFHPTISGLIASGCLDGEVRIWDLHGGSESWFTDSNNAIASLAFHPTAQLLLIATANEIHFWDWSRREPFAVVKTASEMERVRLVRFDPLGHYLLTAIVNPSNSNIANTTYRLQWWDFTKFDLPEISNASVNVLVQNCKIYNDASCDISADGQLLAAFIPSSQRGFPDEGILAVYSLAPHNLGEMLYTKRFGPNAISVSLSPMGRYVMVGLASRRILLHPSTEHMVAQVFRLQQAHGGETSMRRVFNVLYPMPADQRRHVSINSARWLPEPGLGLAYGTNKGDLVICRPEALNSG

Source: doi:10.1101/2022.12.04.519012 (bioRxiv, 2022)
